Measured values reported in patent US20220267475A1.

What was measured:
[1] = target: TIGIT-expressing CHO-K1 cells (UniProt Q495A1); test: flow cytometry
[2] = target: CD47-expressing CHO-K1 cells (UniProt Q08722); test: flow cytometry
CD47-expressing CHO-K1 cells, sequence (Q08722 19-323): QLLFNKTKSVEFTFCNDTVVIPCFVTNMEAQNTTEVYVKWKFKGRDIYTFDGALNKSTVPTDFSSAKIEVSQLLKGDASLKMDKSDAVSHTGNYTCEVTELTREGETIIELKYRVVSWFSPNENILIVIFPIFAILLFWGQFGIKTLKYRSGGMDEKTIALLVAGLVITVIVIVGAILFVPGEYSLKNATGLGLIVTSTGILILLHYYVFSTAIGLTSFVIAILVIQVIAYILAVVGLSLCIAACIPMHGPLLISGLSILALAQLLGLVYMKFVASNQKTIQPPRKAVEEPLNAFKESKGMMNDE

TIGIT-expressing CHO-K1 cells, sequence (Q495A1 22-244): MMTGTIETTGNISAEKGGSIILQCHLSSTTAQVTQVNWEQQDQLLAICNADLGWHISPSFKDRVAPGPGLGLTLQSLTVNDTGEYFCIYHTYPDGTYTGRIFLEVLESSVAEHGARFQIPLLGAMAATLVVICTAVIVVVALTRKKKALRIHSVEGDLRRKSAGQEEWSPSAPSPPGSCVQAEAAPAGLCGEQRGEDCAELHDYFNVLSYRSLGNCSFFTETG

EC50 [1]: 0.015 nM
EC50 [2]: 0.992 pM
Substance: Human IgG
